According to the RNAGym collection of RNA variant scans (doi:10.1073/pnas.2313332121):

B1: TPR t1 (parent)
chain: GACCAAUCUGCCCUCAGAGCUCGAGAACAUCUUCGGAUGCAGAGGAGGCAGGCUUCGGUGGCGCGAUAGCGCCAACGUCCUCAACCUCCAAUGCAUCCCACCACAUGAUGAUGCCUGAAGAGCCUUGGUUUUUUG

Variants of: B1
Experiment: polymerase ribozyme fitness, log enrichment relative to wild type (log ratio); higher = more active; in vitro selection for triplet polymerase activity
How it was run: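 One round of in vitro selection, in triplicate, was applied to PCR-built, transcribed mutant libraries of each subunit of a heterodimeric triplet polymerase ribozyme. The steps were annealing with a biotinylated primer, partner subunit and triplets, incubation frozen at −7 °C, gel excision of extended constructs, streptavidin-bead capture and RT-PCR. Fitness is the logarithm, base 2, of genotype enrichment over wild-type enrichment from inverse-variance-weighted replicate averages of Illumina-sequenced inputs and outputs, keeping genotypes with ≥10 input reads and ≥1 read per output.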

Compared with A16C G69U, C40U C79A C101U is lower in “polymerase ribozyme fitness (log ratio)” value: -1.81 for the first, -2.1 for the second.

Compared with G39C U112A, C49G C70G G77U U78A C85A is lower in “polymerase ribozyme fitness (log ratio)” value: 0.828 for the first, -2.95 for the second.

First: A24U A41C G42U C62G A83G C94G C123A G127A
Second: A29C G39C
The “polymerase ribozyme fitness (log ratio)” value of the first is lower: -6.99 for the first, -3.97 for the second.

First: C53G A74G G117A
Second: C123U G135C
The “polymerase ribozyme fitness (log ratio)” value of the first is lower: -1.73 for the first, 1.48 for the second.

First: G10U G93U U129C
Second: G17A G61U C104U A111G
The “polymerase ribozyme fitness (log ratio)” value of the first is higher: -1.98 for the first, -2.95 for the second.

Going from C12G U55A C56G G63A U81C to C73G G127U, the “polymerase ribozyme fitness (log ratio)” value rises from -2.01 to -1.75.

First: G63C U81C A90U
Second: U9G G60U G77A U78C C98A G113C
The “polymerase ribozyme fitness (log ratio)” value of the first is higher: -3.06 for the first, -5.81 for the second.

First: U9C C104U
Second: G44U A46C G52U G61U C124A
The “polymerase ribozyme fitness (log ratio)” value of the first is higher: 0.605 for the first, -3.53 for the second.

G69U C115U and U9A G44U are within 0.2 log units of each other in “polymerase ribozyme fitness (log ratio)” value: -0.095 for the first, -0.143 for the second.

Compared with C12U U33G C123G, A37G C49G U81G is higher in “polymerase ribozyme fitness (log ratio)” value: -4.3 for the first, -2.07 for the second.

Going from A5U G52C C62A U112A to C40G A46U, the “polymerase ribozyme fitness (log ratio)” value falls from -0.939 to -2.96.

Compared with C49U C62U, C79A G107U A119G G135C is lower in “polymerase ribozyme fitness (log ratio)” value: -1.19 for the first, -5.92 for the second.

First: C34G C53G C72A C104A
Second: U14C C70A G117U
The “polymerase ribozyme fitness (log ratio)” value of the first is higher: -4.72 for the first, -5.57 for the second.

Compared with G71C C102G C114U C115U G120C, A68G U87G A118U U132A is higher in “polymerase ribozyme fitness (log ratio)” value: -5.82 for the first, -2 for the second.

Going from A41G A46C C88U C104U to G44A U112A, the “polymerase ribozyme fitness (log ratio)” value rises from -0.948 to 0.126.

First: U21G G47A
Second: G45U G51A
The “polymerase ribozyme fitness (log ratio)” value of the first is higher: -0.934 for the first, -3.89 for the second.

Compared with U78C C79G U106A, A5U C13G G63A C89U U92A G120A is lower in “polymerase ribozyme fitness (log ratio)” value: -0.519 for the first, -5.85 for the second.

First: G44A C86G U96A
Second: C49A C73G U106G U130C
The “polymerase ribozyme fitness (log ratio)” value of the first is lower: -3.83 for the first, -2.23 for the second.

Compared with A2U G10C G71U A121C, G60U C62U U78G C80A U112C is lower in “polymerase ribozyme fitness (log ratio)” value: -1.06 for the first, -1.42 for the second.

Going from G47A C56U U78A C124A U131A to C40A A41G G42A A43G G122U, the “polymerase ribozyme fitness (log ratio)” value falls from 1.41 to -3.41.

Going from C22G U54A to G63U U87G G117U C123A, the “polymerase ribozyme fitness (log ratio)” value falls from -3.16 to -3.97.

Going from U54A G110A to A6U C31G G47A G61A A91U U112A, the “polymerase ribozyme fitness (log ratio)” value falls from -1.52 to -7.45.

First: G47U A111C
Second: U9C U116C U129A
The “polymerase ribozyme fitness (log ratio)” value of the first is lower: -3.27 for the first, -0.962 for the second.

Compared with U7G G39A G58A G69C C97U, C8G G19A A119G is higher in “polymerase ribozyme fitness (log ratio)” value: -1.38 for the first, -1.07 for the second.

Going from C70A C86U to C62U A66G, the “polymerase ribozyme fitness (log ratio)” value rises from -1.81 to -1.54.

Going from C64U G107U U130C to A119C C124G, the “polymerase ribozyme fitness (log ratio)” value rises from -6.04 to -2.41.

First: U9A A46C A50C G61U C82G
Second: C11G C56A
The “polymerase ribozyme fitness (log ratio)” value of the first is lower: -1.26 for the first, -0.185 for the second.

First: G10U C56G A68G
Second: C8G C13G C15G C34A A46C C88U C123U
The “polymerase ribozyme fitness (log ratio)” value of the first is higher: -4.36 for the first, -5.49 for the second.

First: G52C G61C
Second: C22U C114G C124A U125G
The “polymerase ribozyme fitness (log ratio)” value of the first is higher: -3.04 for the first, -5.84 for the second.

First: U14G C40A C62U
Second: A6U C99U C115U
The “polymerase ribozyme fitness (log ratio)” value of the first is higher: -3.06 for the first, -7.34 for the second.

Compared with A6U C40U G57C G61U A100C G113A, C53G C56G C73A A84C is higher in “polymerase ribozyme fitness (log ratio)” value: -3.51 for the first, -2.01 for the second.

Going from U32C G63A U78G C98U G117U to A18G C82A, the “polymerase ribozyme fitness (log ratio)” value rises from -6.07 to -4.16.

Going from G47U G51U to C4A C72A G113A, the “polymerase ribozyme fitness (log ratio)” value rises from -4.87 to -3.57.

First: G42U C73A U125A
Second: A29U G60C C89A G110A
The “polymerase ribozyme fitness (log ratio)” value of the first is higher: -1.74 for the first, -5.77 for the second.

First: G48A A66U
Second: A24U G47A G52A G61A C101G C114G G122A
The “polymerase ribozyme fitness (log ratio)” value of the first is higher: -2.3 for the first, -7.25 for the second.

Compared with G63A A83C C102U G113U, C11G C22G C53G C82U is higher in “polymerase ribozyme fitness (log ratio)” value: -7.43 for the first, -3.79 for the second.

First: U7A U9A C20U U38A G47U C56A G60U C72G C114A A121U C123U
Second: A16C U132A
The “polymerase ribozyme fitness (log ratio)” value of the first is lower: -4.89 for the first, -2.47 for the second.

First: U9G U54A C56A G71A
Second: C56G A68U
The “polymerase ribozyme fitness (log ratio)” value of the first is higher: -2.22 for the first, -6.1 for the second.

First: A37U G45U G61C
Second: C76A A90G
The “polymerase ribozyme fitness (log ratio)” value of the first is lower: -2.86 for the first, -0.633 for the second.

Going from C3U U14A A111U G120U to A5C A83G U106A C123U G135A, the “polymerase ribozyme fitness (log ratio)” value rises from -5.57 to -1.09.

Going from G47U G58C C73G C104U A121U to C56A U109C, the “polymerase ribozyme fitness (log ratio)” value rises from -5.16 to -3.16.

With G10U C40G C124U U129A the “polymerase ribozyme fitness (log ratio)” value was -1.91.
